Reference: publication PMC11626796

Experiments:
[1] = target: Versican treated with chondroitinase ABC (core protein) (bovine) (UniProt P81282); assay: ELISA; solid-phase binding assay: proteoglycan or versican domain coated on a 96-well plate (0.25 ug/ml; 0.05-1 ug/ml in Fig. 2A) at 4 C overnight, blocked with 3% BSA in TTBS or casein; rat tail type I collagen 0.1-5 ug/ml in 1% BSA/PBS overnight at RT; detected with biotin-conjugated anti-collagen I antibody, streptavidin-HRP and TMB; Kd from Scatchard plot
Versican treated with chondroitinase ABC (core protein) (bovine), sequence (P81282 21-3381): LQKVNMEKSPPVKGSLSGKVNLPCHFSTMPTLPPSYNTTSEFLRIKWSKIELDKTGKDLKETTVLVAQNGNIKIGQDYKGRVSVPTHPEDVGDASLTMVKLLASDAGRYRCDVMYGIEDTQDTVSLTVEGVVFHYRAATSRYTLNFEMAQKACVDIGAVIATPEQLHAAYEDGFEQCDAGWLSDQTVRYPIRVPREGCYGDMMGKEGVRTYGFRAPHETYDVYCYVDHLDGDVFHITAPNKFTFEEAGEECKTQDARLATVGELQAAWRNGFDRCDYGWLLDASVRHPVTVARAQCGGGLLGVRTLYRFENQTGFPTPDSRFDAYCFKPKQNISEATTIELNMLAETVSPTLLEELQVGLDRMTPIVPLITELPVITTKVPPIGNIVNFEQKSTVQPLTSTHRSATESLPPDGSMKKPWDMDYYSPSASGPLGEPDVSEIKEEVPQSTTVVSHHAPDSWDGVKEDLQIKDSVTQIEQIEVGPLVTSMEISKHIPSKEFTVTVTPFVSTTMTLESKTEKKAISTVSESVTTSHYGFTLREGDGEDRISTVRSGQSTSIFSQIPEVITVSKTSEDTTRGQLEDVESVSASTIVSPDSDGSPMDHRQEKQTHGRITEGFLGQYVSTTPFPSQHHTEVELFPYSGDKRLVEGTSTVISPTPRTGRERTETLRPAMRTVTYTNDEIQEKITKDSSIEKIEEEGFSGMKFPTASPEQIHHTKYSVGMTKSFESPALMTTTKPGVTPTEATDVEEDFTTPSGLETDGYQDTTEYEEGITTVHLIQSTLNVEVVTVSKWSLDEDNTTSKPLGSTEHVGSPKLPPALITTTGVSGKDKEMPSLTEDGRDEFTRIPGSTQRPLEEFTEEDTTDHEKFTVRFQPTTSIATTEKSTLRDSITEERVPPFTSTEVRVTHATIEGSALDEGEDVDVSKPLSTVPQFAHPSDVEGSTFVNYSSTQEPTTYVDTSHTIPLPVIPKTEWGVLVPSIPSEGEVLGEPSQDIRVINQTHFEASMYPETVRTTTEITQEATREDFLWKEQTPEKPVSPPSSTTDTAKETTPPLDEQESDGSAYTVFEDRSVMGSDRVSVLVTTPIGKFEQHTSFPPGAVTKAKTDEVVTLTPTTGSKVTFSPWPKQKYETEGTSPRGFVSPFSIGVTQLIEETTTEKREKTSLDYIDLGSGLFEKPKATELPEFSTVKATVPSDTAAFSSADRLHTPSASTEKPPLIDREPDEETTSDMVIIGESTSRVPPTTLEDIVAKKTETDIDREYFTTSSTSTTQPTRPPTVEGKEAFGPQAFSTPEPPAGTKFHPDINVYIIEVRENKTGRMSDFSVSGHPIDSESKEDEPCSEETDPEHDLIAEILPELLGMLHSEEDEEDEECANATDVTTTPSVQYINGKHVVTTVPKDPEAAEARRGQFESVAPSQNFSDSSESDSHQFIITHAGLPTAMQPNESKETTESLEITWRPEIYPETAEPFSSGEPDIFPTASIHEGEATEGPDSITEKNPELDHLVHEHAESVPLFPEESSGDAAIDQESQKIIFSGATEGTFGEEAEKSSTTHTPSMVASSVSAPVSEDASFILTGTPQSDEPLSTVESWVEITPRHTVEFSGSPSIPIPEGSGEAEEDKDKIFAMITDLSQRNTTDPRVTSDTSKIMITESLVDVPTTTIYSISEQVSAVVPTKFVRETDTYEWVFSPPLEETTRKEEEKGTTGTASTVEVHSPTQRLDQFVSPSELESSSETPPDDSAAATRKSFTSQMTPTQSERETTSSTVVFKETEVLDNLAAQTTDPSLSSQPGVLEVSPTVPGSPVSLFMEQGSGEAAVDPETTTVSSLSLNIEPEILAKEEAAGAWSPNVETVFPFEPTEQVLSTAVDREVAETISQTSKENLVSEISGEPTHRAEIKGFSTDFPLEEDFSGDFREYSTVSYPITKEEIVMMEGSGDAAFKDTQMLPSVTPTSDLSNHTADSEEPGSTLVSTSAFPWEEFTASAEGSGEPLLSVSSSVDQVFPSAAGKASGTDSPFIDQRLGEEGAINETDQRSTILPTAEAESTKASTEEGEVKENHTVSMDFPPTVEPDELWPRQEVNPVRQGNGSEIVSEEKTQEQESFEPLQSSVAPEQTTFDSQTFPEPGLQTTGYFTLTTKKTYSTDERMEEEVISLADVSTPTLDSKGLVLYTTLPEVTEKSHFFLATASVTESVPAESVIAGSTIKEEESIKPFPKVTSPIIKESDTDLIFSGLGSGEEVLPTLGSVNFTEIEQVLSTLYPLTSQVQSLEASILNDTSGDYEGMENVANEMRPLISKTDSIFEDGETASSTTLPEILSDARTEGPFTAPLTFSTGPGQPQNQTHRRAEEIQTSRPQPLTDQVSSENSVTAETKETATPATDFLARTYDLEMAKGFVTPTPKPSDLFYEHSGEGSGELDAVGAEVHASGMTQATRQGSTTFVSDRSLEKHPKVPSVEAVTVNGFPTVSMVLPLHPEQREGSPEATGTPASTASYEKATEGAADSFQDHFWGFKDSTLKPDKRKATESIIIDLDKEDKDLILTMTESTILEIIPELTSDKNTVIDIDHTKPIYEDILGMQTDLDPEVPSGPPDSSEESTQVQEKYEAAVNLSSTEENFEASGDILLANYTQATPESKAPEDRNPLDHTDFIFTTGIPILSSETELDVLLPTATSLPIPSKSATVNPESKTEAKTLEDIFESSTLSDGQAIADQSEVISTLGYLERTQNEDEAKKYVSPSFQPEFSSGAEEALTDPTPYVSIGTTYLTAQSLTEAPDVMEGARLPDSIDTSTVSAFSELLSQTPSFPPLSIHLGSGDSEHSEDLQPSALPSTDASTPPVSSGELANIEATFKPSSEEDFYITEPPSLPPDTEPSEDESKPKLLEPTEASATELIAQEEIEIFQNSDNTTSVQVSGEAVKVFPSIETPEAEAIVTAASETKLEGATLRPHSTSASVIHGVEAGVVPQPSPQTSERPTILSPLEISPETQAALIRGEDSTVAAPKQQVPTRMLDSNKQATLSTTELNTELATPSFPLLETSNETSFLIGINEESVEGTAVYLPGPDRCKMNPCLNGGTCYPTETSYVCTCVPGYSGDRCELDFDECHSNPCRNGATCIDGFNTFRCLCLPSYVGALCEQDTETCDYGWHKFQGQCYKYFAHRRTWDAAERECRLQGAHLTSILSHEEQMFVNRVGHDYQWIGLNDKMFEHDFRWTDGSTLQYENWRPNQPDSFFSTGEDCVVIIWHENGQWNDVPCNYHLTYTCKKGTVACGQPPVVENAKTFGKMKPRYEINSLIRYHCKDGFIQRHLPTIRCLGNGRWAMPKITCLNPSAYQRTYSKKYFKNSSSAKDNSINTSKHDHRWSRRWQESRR

[2] = target: Native versican isolated from bovine liver (bovine) (UniProt P81282); assay: as above
Native versican isolated from bovine liver (bovine), sequence (P81282 21-3381): as above

| Kd [1] [nM] | Kd [2] [nM] | Substance |
| --- | --- | --- |
| 2.2 |  | Rat tail type I telo-collagen, P02454 152-1207; P02466 86-1125 (complex; GAG side chains removed with chondroitinase ABC) |
|  | 1.3 | Rat tail type I telo-collagen, P02454 152-1207; P02466 86-1125 (complex; chondroitin sulfate GAG side chains) |
